Laboratory results taken from publication PMC9746966, “Structural basis for matriglycan synthesis by the LARGE1 dual glycosyltransferase” (PLOS ONE, 2022).

Molecular target: the molecule itself
Test: mass photometry; Refeyn One MP; LARGE1 samples diluted in TBS to approximately 30 nM (2.5 ug/ml), room temperature, 60 second recordings; monomer to dimer

Row | Protein | stoichiometry N
1 | LARGE1^ecto (soluble secreted ectodomain of human LARGE1 with its coiled-coil domain, residues 29-756) (domain or fragment, UniProt O95461 29-756, looked up, Cloned into a modified pHLsec plasmid (BglII/NotI); also called Like-acetylglucosaminyltransferase 1; LARGE1-His WT) LFSGSFEDGKPVSLSPLESQAHSPRYTASSQRERESLEVRMREVEEENRALRRQLSLAQGRAPSHRRGNHSKTYSMEEGTGDSENLRAGIVAGNSSECGQQPVVEKCETIHVAIVCAGYNASRDVVTLVKSVLFHRRNPLHFHLIADSIAEQILATLFQTWMVPAVRVDFYNADELKSEVSWIPNKHYSGIYGLMKLVLTKTLPANLERVIVLDTDITFATDIAELWAVFHKFKGQQVLGLVENQSDWYLGNLWKNHRPWPALGRGYNTGVILLLLDKLRKMKWEQMWRLTAERELMGMLSTSLADQDIFNAVIKQNPFLVYQLPCFWNVQLSDHTRSEQCYRDVSDLKVIHWNSPKKLRVKNKHVEFFRNLYLTFLEYDGNLLRRELFGCPSEADVNSENLQKQLSELDEDDLCYEFRRERFTVHRTHLYFLHYEYEPAADSTDVTLVAQLSMDRLQMLEAICKHWEGPISLALYLSDAEAQQFLRYAQGSEVLMSRHNVGYHIVYKEGQFYPVNLLRNVAMKHISTPYMFLSDIDFLPMYGLYEYLRKSVIQLDLANTKKAMIVPAFETLRYRLSFPKSKAELLSMLDMGTLFTFRYHVWTKGHAPTNFAKWRTATTPYRVEWEADFEPYVVVRRDCPEYDRRFVGFGWNKVAHIMELDVQEYEFIVLPNAYMIHMPHAPSFDITKFRSNKQYRICLKTLKEEFQQDMSRRYGFAALKYLTAENNS | 2
2 | LARGE1^ΔCC (soluble secreted ectodomain of human LARGE1 without its coiled-coil domain, residues 92-756) (domain or fragment, UniProt O95461 92-756, looked up, residues 134 to 752 are modelled in the crystal structure; Cloned into a modified pHLsec plasmid; also called LARGE1 without CC; LARGE1- CC) SHRRGNHSKTYSMEEGTGDSENLRAGIVAGNSSECGQQPVVEKCETIHVAIVCAGYNASRDVVTLVKSVLFHRRNPLHFHLIADSIAEQILATLFQTWMVPAVRVDFYNADELKSEVSWIPNKHYSGIYGLMKLVLTKTLPANLERVIVLDTDITFATDIAELWAVFHKFKGQQVLGLVENQSDWYLGNLWKNHRPWPALGRGYNTGVILLLLDKLRKMKWEQMWRLTAERELMGMLSTSLADQDIFNAVIKQNPFLVYQLPCFWNVQLSDHTRSEQCYRDVSDLKVIHWNSPKKLRVKNKHVEFFRNLYLTFLEYDGNLLRRELFGCPSEADVNSENLQKQLSELDEDDLCYEFRRERFTVHRTHLYFLHYEYEPAADSTDVTLVAQLSMDRLQMLEAICKHWEGPISLALYLSDAEAQQFLRYAQGSEVLMSRHNVGYHIVYKEGQFYPVNLLRNVAMKHISTPYMFLSDIDFLPMYGLYEYLRKSVIQLDLANTKKAMIVPAFETLRYRLSFPKSKAELLSMLDMGTLFTFRYHVWTKGHAPTNFAKWRTATTPYRVEWEADFEPYVVVRRDCPEYDRRFVGFGWNKVAHIMELDVQEYEFIVLPNAYMIHMPHAPSFDITKFRSNKQYRICLKTLKEEFQQDMSRRYGFAALKYLTAENNS | 2
